± gives the standard error. For some of these results: Variants at the floor of the assay were thinned out.
B1: glmS ribozyme (parent)
chain: AUAAAAGCGCCAGAACUACAGAAAUGUAGUUGACGAGGAGGAGGUUUAUCGAAUUUUCGGCGGAUGCCUCCAAA

Assays:
Conditions in all cases: with glucosamine-6-phosphate
glucosamine-6-phosphate [1] = variants of: B1; assay: kcat; higher = faster cleavage; RNA array
Summary of the method: (§1)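 Barcoded glmS ribozyme variants on sequenced MiSeq chips were transcribed in situ by E. coli RNA polymerase and tracked through a hybridised Cy3 probe at 37 °C. Glucosamine-6-phosphate (40 μM to 10 mM) in HEPES/KCl/Mg(OAc)2 buffer was flowed in, and tiles were imaged over ~14 h. Signals were normalised to baseline and to non-cleaving reference variants; per-tile medians were fit to one- or two-exponential decays to give kobs. kcat and KM came from weighted Michaelis–Menten fits across concentrations.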

glucosamine-6-phosphate [2] = variants of: B1; assay: KM; higher = weaker cofactor use; RNA array
Summary of the method: as §1

glucosamine-6-phosphate [3] = variants of: B1; assay: self-cleavage kobs at 160 uM GlcN6P; higher = faster cleavage; RNA array
Summary of the method: as §1

glucosamine-6-phosphate [4] = variants of: B1; assay: self-cleavage kobs at 640 uM GlcN6P; higher = faster cleavage; RNA array
Summary of the method: as §1

glucosamine-6-phosphate [5] = variants of: B1; assay: self-cleavage kobs at 2500 uM GlcN6P; higher = faster cleavage; RNA array
Summary of the method: as §1

glucosamine-6-phosphate [6] = variants of: B1; assay: self-cleavage kobs at 10000 uM GlcN6P; higher = faster cleavage; RNA array
Summary of the method: as §1

glucosamine-6-phosphate [7] = variants of: B1; assay: self-cleavage kobs at 40 uM GlcN6P; higher = faster cleavage; RNA array
Summary of the method: as §1

## A12G C58A
glucosamine-6-phosphate [1]
  kcat: 0.000476 ± 0.0001 s⁻¹
glucosamine-6-phosphate [2]
  KM: 1510 ± 610 µM
glucosamine-6-phosphate [3]
  self-cleavage kobs at 160 uM GlcN6P: 4.69e-05 ± 1.3e-05 s⁻¹
glucosamine-6-phosphate [4]
  self-cleavage kobs at 640 uM GlcN6P: 0.000154 ± 1.7e-05 s⁻¹
glucosamine-6-phosphate [5]
  self-cleavage kobs at 2500 uM GlcN6P: 0.000245 ± 3.3e-05 s⁻¹
glucosamine-6-phosphate [6]
  self-cleavage kobs at 10000 uM GlcN6P: 0.000523 ± 7.4e-05 s⁻¹

## G13A C68G
glucosamine-6-phosphate [1]
  kcat: 1.81e-05 ± 5e-06 s⁻¹

## A12G G41U
glucosamine-6-phosphate [1]
  kcat: 0.000763 ± 4.6e-05 s⁻¹
glucosamine-6-phosphate [4]
  self-cleavage kobs at 640 uM GlcN6P: 4.77e-05 ± 1.4e-05 s⁻¹
glucosamine-6-phosphate [5]
  self-cleavage kobs at 2500 uM GlcN6P: 0.000147 ± 2.1e-05 s⁻¹
glucosamine-6-phosphate [6]
  self-cleavage kobs at 10000 uM GlcN6P: 0.000377 ± 4.1e-05 s⁻¹

## A12G G66U C67U
glucosamine-6-phosphate [1]
  kcat: 8.1e-05 ± 2.4e-06 s⁻¹
glucosamine-6-phosphate [2]
  KM: 1610 ± 110 µM
glucosamine-6-phosphate [7]
  self-cleavage kobs at 40 uM GlcN6P: < 1e-05 s⁻¹
glucosamine-6-phosphate [5]
  self-cleavage kobs at 2500 uM GlcN6P: 4.93e-05 ± 2.1e-05 s⁻¹

## A12C A14C
glucosamine-6-phosphate [1]
  kcat: 0.00082 ± 0.00025 s⁻¹
glucosamine-6-phosphate [2]
  KM: 6190 ± 2800 µM
glucosamine-6-phosphate [3]
  self-cleavage kobs at 160 uM GlcN6P: 4e-05 ± 1.8e-05 s⁻¹
glucosamine-6-phosphate [4]
  self-cleavage kobs at 640 uM GlcN6P: 7.98e-05 ± 2e-05 s⁻¹
glucosamine-6-phosphate [5]
  self-cleavage kobs at 2500 uM GlcN6P: 0.000201 ± 5.1e-05 s⁻¹
glucosamine-6-phosphate [6]
  self-cleavage kobs at 10000 uM GlcN6P: 0.000534 ± 0.0001 s⁻¹

## A12G U57C
glucosamine-6-phosphate [1]
  kcat: 1.17e-05 ± 1.7e-06 s⁻¹
glucosamine-6-phosphate [7]
  self-cleavage kobs at 40 uM GlcN6P: < 1e-05 s⁻¹

## C11U U45G U54A
glucosamine-6-phosphate [1]
  kcat: 0.000206 ± 5.6e-05 s⁻¹
glucosamine-6-phosphate [5]
  self-cleavage kobs at 2500 uM GlcN6P: 0.000119 ± 2.7e-05 s⁻¹
glucosamine-6-phosphate [6]
  self-cleavage kobs at 10000 uM GlcN6P: 0.000152 ± 3.4e-05 s⁻¹

## A12C G59A
glucosamine-6-phosphate [1]
  kcat: < 1e-05 s⁻¹
glucosamine-6-phosphate [7]
  self-cleavage kobs at 40 uM GlcN6P: < 1e-05 s⁻¹
glucosamine-6-phosphate [3]
  self-cleavage kobs at 160 uM GlcN6P: < 1e-05 s⁻¹

## A12C G59C
glucosamine-6-phosphate [1]
  kcat: 1.09e-05 ± 2.5e-06 s⁻¹

## A12C A53G
glucosamine-6-phosphate [1]
  kcat: 0.0568 ± 0.027 s⁻¹
glucosamine-6-phosphate [7]
  self-cleavage kobs at 40 uM GlcN6P: 0.000585 ± 7.2e-05 s⁻¹
glucosamine-6-phosphate [3]
  self-cleavage kobs at 160 uM GlcN6P: 0.00162 ± 0.00033 s⁻¹
glucosamine-6-phosphate [4]
  self-cleavage kobs at 640 uM GlcN6P: 0.00569 ± 0.00072 s⁻¹
glucosamine-6-phosphate [5]
  self-cleavage kobs at 2500 uM GlcN6P: 0.0149 ± 0.0025 s⁻¹
glucosamine-6-phosphate [6]
  self-cleavage kobs at 10000 uM GlcN6P: 0.0471 ± 0.0076 s⁻¹

## A12C A53U
glucosamine-6-phosphate [1]
  kcat: 0.015 ± 0.0038 s⁻¹
glucosamine-6-phosphate [2]
  KM: 2160 ± 740 µM
glucosamine-6-phosphate [7]
  self-cleavage kobs at 40 uM GlcN6P: 0.000376 ± 4.9e-05 s⁻¹
glucosamine-6-phosphate [3]
  self-cleavage kobs at 160 uM GlcN6P: 0.000867 ± 0.00013 s⁻¹
glucosamine-6-phosphate [4]
  self-cleavage kobs at 640 uM GlcN6P: 0.00317 ± 0.00041 s⁻¹
glucosamine-6-phosphate [5]
  self-cleavage kobs at 2500 uM GlcN6P: 0.0103 ± 0.0019 s⁻¹
glucosamine-6-phosphate [6]
  self-cleavage kobs at 10000 uM GlcN6P: 0.0121 ± 0.0016 s⁻¹

## A12C A53C
glucosamine-6-phosphate [1]
  kcat: 0.00399 ± 0.0011 s⁻¹
glucosamine-6-phosphate [2]
  KM: 2090 ± 920 µM
glucosamine-6-phosphate [7]
  self-cleavage kobs at 40 uM GlcN6P: 0.000109 ± 1.4e-05 s⁻¹
glucosamine-6-phosphate [3]
  self-cleavage kobs at 160 uM GlcN6P: 0.000285 ± 8.1e-05 s⁻¹
glucosamine-6-phosphate [4]
  self-cleavage kobs at 640 uM GlcN6P: 0.000662 ± 0.00012 s⁻¹
glucosamine-6-phosphate [5]
  self-cleavage kobs at 2500 uM GlcN6P: 0.00223 ± 0.00038 s⁻¹
glucosamine-6-phosphate [6]
  self-cleavage kobs at 10000 uM GlcN6P: 0.00352 ± 0.00041 s⁻¹

## A12C A64G
glucosamine-6-phosphate [1]
  kcat: 0.000378 ± 6.7e-05 s⁻¹
glucosamine-6-phosphate [2]
  KM: 1600 ± 500 µM
glucosamine-6-phosphate [4]
  self-cleavage kobs at 640 uM GlcN6P: 0.000111 ± 1.5e-05 s⁻¹
glucosamine-6-phosphate [5]
  self-cleavage kobs at 2500 uM GlcN6P: 0.000209 ± 3.2e-05 s⁻¹
glucosamine-6-phosphate [6]
  self-cleavage kobs at 10000 uM GlcN6P: 0.000415 ± 0.0001 s⁻¹

## A12U G13A C50G C67U
glucosamine-6-phosphate [1]
  kcat: 0.000171 ± 2.5e-05 s⁻¹
glucosamine-6-phosphate [7]
  self-cleavage kobs at 40 uM GlcN6P: 0.000107 ± 2.3e-05 s⁻¹
glucosamine-6-phosphate [3]
  self-cleavage kobs at 160 uM GlcN6P: 0.000201 ± 5.7e-05 s⁻¹
glucosamine-6-phosphate [4]
  self-cleavage kobs at 640 uM GlcN6P: 0.000169 ± 4.2e-05 s⁻¹
glucosamine-6-phosphate [5]
  self-cleavage kobs at 2500 uM GlcN6P: 0.000208 ± 3.6e-05 s⁻¹
glucosamine-6-phosphate [6]
  self-cleavage kobs at 10000 uM GlcN6P: 0.000124 ± 3.4e-05 s⁻¹

## A12U C67U
glucosamine-6-phosphate [1]
  kcat: 0.0497 ± 0.018 s⁻¹
glucosamine-6-phosphate [2]
  KM: 2250 ± 970 µM
glucosamine-6-phosphate [7]
  self-cleavage kobs at 40 uM GlcN6P: 0.000918 ± 0.0001 s⁻¹
glucosamine-6-phosphate [4]
  self-cleavage kobs at 640 uM GlcN6P: 0.0142 ± 0.0033 s⁻¹
glucosamine-6-phosphate [5]
  self-cleavage kobs at 2500 uM GlcN6P: 0.0421 ± 0.012 s⁻¹
glucosamine-6-phosphate [6]
  self-cleavage kobs at 10000 uM GlcN6P: 0.0378 ± 0.0074 s⁻¹

## A12G A15G C70A
glucosamine-6-phosphate [1]
  kcat: 0.000107 ± 1.9e-05 s⁻¹
glucosamine-6-phosphate [2]
  KM: 2120 ± 890 µM
glucosamine-6-phosphate [5]
  self-cleavage kobs at 2500 uM GlcN6P: 5.85e-05 ± 1.1e-05 s⁻¹
glucosamine-6-phosphate [6]
  self-cleavage kobs at 10000 uM GlcN6P: 8.6e-05 ± 3.1e-05 s⁻¹

## A12U A39C A52G
glucosamine-6-phosphate [1]
  kcat: 0.000172 ± 2.4e-05 s⁻¹
glucosamine-6-phosphate [2]
  KM: 2140 ± 680 µM
glucosamine-6-phosphate [4]
  self-cleavage kobs at 640 uM GlcN6P: 4.67e-05 ± 1.3e-05 s⁻¹
glucosamine-6-phosphate [5]
  self-cleavage kobs at 2500 uM GlcN6P: 8.04e-05 ± 1.8e-05 s⁻¹
glucosamine-6-phosphate [6]
  self-cleavage kobs at 10000 uM GlcN6P: 0.00015 ± 2.7e-05 s⁻¹
